Laboratory results taken from article PMC10570326.

Biological target: OmpK36 (UniProt Q48473)
Assay: crystal structure; laser-shaped cylindrical crystal, S-SAD at a wavelength of 4.13 Å, resolution limited to 2.7 Å

## OmpK36 (from UniProt Q48473 22-363) (natural protein)
  stoichiometry N: 3
